From patent US20260209316A1 (US Dept. of Health and Human Services, published 2026)
Like-named read-outs stand apart in the source and are kept apart here.

Columns and labels:
[1] = biological target: T1, mucin domain-deleted Zaire GP (GPdMuc) (Ebola (Zaire) virus (EBOV), UniProt Q05320 33-632); test: ELISA on coated GP
T1 construct: also called Zaire GPdMuc; GP(Z)dMuc

[2] = biological target: T2, mucin domain-deleted Sudan GP (GPdMuc) (Sudan virus (SUDV), UniProt Q7T9D9 33-632); test: ELISA on coated GP
T2 construct: also called Sudan GPdMuc; GP(S)dMuc

[3] = biological target: T2, mucin domain-deleted Sudan GP (GPdMuc); test: BLI competition on Sudan GPdMuc (lower table); competitor mAb166
[4] = biological target: T2, mucin domain-deleted Sudan GP (GPdMuc); test: ELISA on coated GP; remark: listed apart in the source
[5] = biological target: T2, mucin domain-deleted Sudan GP (GPdMuc); test: BLI competition on Sudan GPdMuc (lower table); competitor 316L
[6] = biological target: T2, mucin domain-deleted Sudan GP (GPdMuc); test: BLI competition on Sudan GPdMuc (lower table); competitor 15H10
[7] = biological target: T2, mucin domain-deleted Sudan GP (GPdMuc); test: BLI competition on Sudan GPdMuc (lower table); competitor 16F6
[8] = biological target: T2, mucin domain-deleted Sudan GP (GPdMuc); test: BLI competition on Sudan GPdMuc (upper table); competitor mAb166
[9] = biological target: T2, mucin domain-deleted Sudan GP (GPdMuc); test: BLI competition on Sudan GPdMuc (upper table); competitor 15H10
[10] = biological target: T2, mucin domain-deleted Sudan GP (GPdMuc); test: BLI competition on Sudan GPdMuc (upper table); competitor 316L
[11] = biological target: T2, mucin domain-deleted Sudan GP (GPdMuc); test: BLI competition on Sudan GPdMuc (upper table); competitor 16F6
[12] = biological target: T2, mucin domain-deleted Sudan GP (GPdMuc); test: BLI, Fab, pH 5.3
[13] = biological target: T1, mucin domain-deleted Zaire GP (GPdMuc); test: BLI, Fab, pH 7.4
[14] = biological target: T2, mucin domain-deleted Sudan GP (GPdMuc); test: BLI, Fab, pH 7.4

B1: antibody 206L (antibody, V domains shown)
VH: EVQLVESGGGVVQPGGSLRLSCAASGFTFDDYAMHWVRQAPGKGLEWVSGISWSGGNTYYADSVKGRFTVSRENAKNSLYLQMNRLRAEDTAFYNCARTSQGGAVVFSAPNYWGQGVLVTVSS
VL: QSVLTQAPSVSGAPGQRVTISCTGSSSNIGGYYVQWYQQLPGRAPKLLIYENNKRPSGVSDRFSGSRSASSASLTITGLQSEDEADYYCQSYDSRLNGYIFGGGTRLTVL
[1]
  EC50: 0.01 µg/mL
[2]
  EC50: 0.2 µg/mL

B2: antibody 578S (antibody, V domains shown)
VH: EVQLVESGGGVVQPGRSLRLSCAASGFTFSSYELHWVRQAPGKGLEWVAVISYDGSSKYYADSLKGRFTISRDNSKNTLSLQMNSLRAEDTAMYYCVRQSEAYCSDGRCDWRRALDIWGQGTMVTVSP
VL: DIQMTQSPSSLSASVGDRVTITCQASQDIKNYLNWYQQKPGKAPKLLIYDVSKLETGVPSRFSGSGSGTDFSFTISSLQPEDIATYYCQQYDNLPSYTFGQGTKLEIK
[3]
  % inhibition of binding: 86.6%
[4]
  EC50: 0.09 µg/mL
[5]
  % inhibition of binding: 7.8%
[6]
  % inhibition of binding: 7.51%
[7]
  % inhibition of binding: 11.1%

B3: antibody 315S (antibody, V domains shown)
VH: EVQLVESGGGVVQPGRSLRLSCAASGFTFKTYTMHWVRQAPGKGLEWVAVITDDGVNKKYADSVKGRFTISRDNSKNTLYLQMNSLRLEDTAVYYCARSVVVLAAYPLDYWGQGTMVTVSS
VL: DIQMTQSPSSLSASVGDRVTITCRASQTISTYLHWYQQRPGKAPKLLIYAASSLQSGVPSRVSGSGSGTDFTLTITSLQPEDFATYYCLQTYSLPLTFGGGTNVEIK
[8]
  % inhibition of binding: -2.64%
[4]
  EC50: 0.01 µg/mL
[9]
  % inhibition of binding: 6.61%
[10]
  % inhibition of binding: 0.7%
[11]
  % inhibition of binding: 17.9%

B4: Fab generated from 316L (Fab, V domains shown)
VH: EERLVESGGGLVQPGGSLRLSCAASGFTFGDYAMHWVRQVPGKSLEWLSGISWSGYTTYSADSVKGRFTISRDNAKNSLYLQMNRLRPEDTGLYYCVTLIGAIGIKDSLDVWGRGVLVTVSS
VL: QSVLTQPPSVSGAPGQRVTVSCSGSSSNIGAGNYVQWYQQLPGTAPKVLIYQTEKRPSGTSDRFSGSKSDTSASLTINGLQSEDEADYYCQVYDSNLNGWVFGGGTRLTVL
notes: also called 316L Fab
[12]
  Kd: 0.46 nM
  koff: 5.26e-05 s⁻¹
  kon: 112000 M⁻¹ s⁻¹
[13]
  Kd: 13.3 nM
  koff: 0.0015 s⁻¹
  kon: 115000 M⁻¹ s⁻¹
[14]
  Kd: 0.372 nM
  koff: 5.38e-05 s⁻¹
  kon: 145000 M⁻¹ s⁻¹

B5: antibody 314L (antibody, V domains shown)
VH: EERLVESGGGLVQPGGSLRLSCAASGFTFGDYAMHWVRQVPGKSLEWLSGISWSGYTTYSADSVKGRFTISRDNAKNSLYLQMNRLRPEDTGLYYCVTLIGAIGIKDSLDVWGRGVLVTVSS
VL: EVVFTQPHSVSGSPGQMVTISCTRSSGTIDNSYVYWHQQRPGSAPTTVIYNDDQRPSGVPDRFSGSIDSSSNSASLTISGLKSEDEADYYCQSYDSSGWVFGGGTRLTVL
[1]
  EC50: 2.6 µg/mL
[2]
  EC50: 0.31 µg/mL

B6: Fab generated from 380L (Fab, V domains shown)
VH: EVQLVESGGGLVQPGGSLTLSCAASGFTFGDYVMHWVRQVPGRGLEWLSAVSWSGYTTYSADSVKGRFTISRDNAKNSLYLQMSRLGTADTGLYYCVTLIGAIGIRDSFDAWGRGVLVTVSS
VL: QSVLTQPPSMSGAPGQRVTVSCTGSSSNIGAGNYVQWYQQLPGTAPKVLIYQTDKRPSGISDRFSGSKSGTSASLTISGLQSEDEADYYCQVYDSSLNGWVFGGGTRLTVL
notes: also called 380L Fab
[12]
  Kd: 0.64 nM
  koff: 0.000109 s⁻¹
  kon: 172000 M⁻¹ s⁻¹
[13]
  Kd: 6.64 nM
  koff: 0.000778 s⁻¹
  kon: 118000 M⁻¹ s⁻¹
[14]
  Kd: 0.567 nM
  koff: 9.54e-05 s⁻¹
  kon: 168000 M⁻¹ s⁻¹

B7: antibody 528S (antibody, V domains shown)
VH: EVQLAESGGGVVQPGRSLRLSCAASGFTFNSYGMHWVRQAPGKGLEWVAVIWDDGSKKYYADSVKGRFTISRDNSKNTLFLQMNSLRAEDTAVYYCARETIMFTFGEVIVSSRDNYYMDVWGKGTTVTVSS
VL: EIVLTQSPATLSLSPGERATLSCRASQSVSNYLAWYQQKPGQAPRLLIYDASTRAIGIPARFSGVGSGTDFTLTISSLEPEDFAVYYCQQRSNWPPLTFGGGTKVEIK
[8]
  % inhibition of binding: 82%
[4]
  EC50: 0.03 µg/mL
[9]
  % inhibition of binding: 14.7%
[10]
  % inhibition of binding: 8.13%
[11]
  % inhibition of binding: 13.2%

B8: antibody 310L (antibody, V domains shown)
VH: EMQLVESGGGLVQPGGSLRLSCAASGFTFDAYAMHWVRQRPGKGLEWISGIIWSGRTTYYADSVKGRFTFSRDNSKNSLYLEMNSLKPEDTALYYCAKDSWNYGVYNSLDVWGRGILVTVSS
VL: QSVLTQPPSVSGAPGQRVTISCTGSSSNVGPHYVSWYQHLPGTTPKLLIFQDNKRPSGVSDRFSGSKSASSASLTITGLQTEDEADYYCLSYDSSLNVYIFGSGTRLTVL
[1]
  EC50: 0.01 µg/mL
[2]
  EC50: 0.34 µg/mL

B9: antibody 315L (antibody, V domains shown)
VH: QVQLQESGPGLVKPSETLSLTCTVSGGSITGNYWTWVRQPPGKGLQYIGRFDAGGKTYYNPPLKSRVSILGDKSKNQVSLNLTSVTVADTGVYYCAREQWGQLLSGSFDVWGRGVLVTVSS
VL: SYELTQPPSVSVSPGQTARITCSGDALPDYYAHWYQQKSGQAPMLVIYKDTERPSGIPERFSGSSSGTTVSLTISGVQAEDEADYYCQSGDSSGNHWVFGGGTRLTVL
[1]
  EC50: 1.5 µg/mL
[2]
  EC50: 0.12 µg/mL

B10: antibody 338S (antibody, V domains shown)
VH: EVQLVESGGGVVQPGRSLRLSCAASGFTFSQYGMHWVRQAPGKGLECVAVIWFDGSKKYYGDSVKGRFTISRDNSKNTLYLQMNSLRAEDTAVYFCARESLYYYDSGGHYYERGRIDYWGQGTLVTVSS
VL: DIQMTQSPSSLSASVGDRVTITCRASQDISNFLAWFQQKPGKAPKSLIYAASSLLSGVPSKFSGSGSGTDFTLTISSLQPEDFATYYCQQYNSYPPTFGQGTKLEIK
[8]
  % inhibition of binding: -6.27%
[4]
  EC50: 0.02 µg/mL
[9]
  % inhibition of binding: 4.35%
[10]
  % inhibition of binding: 0.2%
[11]
  % inhibition of binding: 3.74%

B11: antibody 231L (antibody, V domains shown)
VH: EVQLVESGGGLVQPGGSLRLSCAASAFTFDDYAMHWVRQAPGKGLEWVSGITWSGLSTYYADSVKGRFTISRDNAKNSLYLQMNSLRVEDTALYYCAKSGNNSPFSGLDSWGQGAVVTVSS
VL: QSVLTQPPSVSGAPGQRVTVSCTGSSSNIGAGSYVQWYQQLPGTAPKLLIYENNKRPSGVSDRFSGSKSGTSASLTITGLQSEDEADYYCQSYDSSLNAYIFGAGTRLTVL
[1]
  EC50: 0.01 µg/mL
[2]
  EC50: 0.02 µg/mL

B12: antibody 191L (antibody, V domains shown)
VH: EVQLVESGGGLVQPGGSLRLSCAASGFTFSSYGIHWVRQAPGKGLEWVAIISYDGNKKFHADSVKDRFTISRDNSKNMLYLQMNNLKLEDTAVYYCARAYDSGYFAGSVFYYWGQGVLVTVSS
VL: EVVFTQPHSVSGSPGQTVTISCTRSSGSIDSEYVQWYQQRPGNAPTTVIYKDNQRPSGVPDRFSGSIDSSSNSASLAISGLKSEDEADYYCQSADGNYHPVFGEGTRLTVL
[1]
  EC50: 0.01 µg/mL
[2]
  EC50: 1.74 µg/mL

B13: antibody 377S (antibody, V domains shown)
VH: QVQLVQSGAEVKKPGSSVKVSCKASGGTFSNYAINWVRQAPGQGLEWMGRTIPFLGLTNYAENFQARVTITADKSTGTSYMQLSSLRSEDTAVYFCAKAATSGWSPFDNWGQGTLVTVSS
VL: EIVLTQSPGTLSLSPGERATLSCRASQSISSSYFGWYQQKPGQAPRLLIYGASRRAAGIPDRFSCSGSGTDFTLTISRLEPEDFGVYYCQQYGSSPTFGQGTKVEIK
[8]
  % inhibition of binding: 83.8%
[4]
  EC50: 0.86 µg/mL
[9]
  % inhibition of binding: 12.1%
[10]
  % inhibition of binding: 39.4%
[11]
  % inhibition of binding: 9.63%

B14: antibody 203S (antibody, V domains shown)
VH: QVQLVQSGAEVKKPGSSVKVSCKASGGTFSSYAISWVRQAPGQGLEWLGRILPALGLANYAQKYQDRVKITADKSTSTAYMELSRLGSEDTAVYYCARDRWVGAARRGQYFDYWGQGTQVTVSS
VL: DIQMTQSPATLSASVGDRVTITCRASQSIGTWLAWYQQKPGKAPKLLIYDASSLESGVPPRFSGSGSETEFTLTISSLQPDDFATYYCHQYKSYSYTFGQGTKLEIK
[8]
  % inhibition of binding: 87.5%
[4]
  EC50: 0.57 µg/mL
[9]
  % inhibition of binding: 13.4%
[10]
  % inhibition of binding: 10.3%
[11]
  % inhibition of binding: 10.8%
